# Reference: the nanobody polyreactivity screen of Harvey et al. (2022)
# Experiment: yeast display, Sf9 membrane polyspecificity reagent, FACS + sequencing; frameworks hold sequencing errors
# Summary of the method: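 Sorting gates, low and high (top ~1%), were placed on anti-HA fluorescence to track expression and on streptavidin fluorescence to track reagent binding. A clone's polyreactivity label is taken from the gate it came out of. The reagent was 10% biotinylated, detergent-solubilized Sf9 membrane, applied for 1 hour at 4 °C to galactose-induced yeast display cells.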
row,Sequence,polyreactivity (PSR sort gate)
1,QVQLVESGGGLVQAGGRLRLSCAASGYIFPKNAMGWYRQAPGKERELVAAITGSGGSTYYADSVKGRFTISRDNAKNTVYLQMNSLKPEDTAVYYCAKRSWIEYDYWGQGTQVTVSS,low polyreactivity
2,QVQLVESGGGLVQAGGRLRLSCAASGYTFKFNAMGWYRQAPGKETELVAGITRGGGTYADSVKGRFTISRDNAKNTVYLQMNSLKPDDTAVSYCASAWGAPSRFFSAFDYWGQGTQVTVSS,low polyreactivity
3,QVQLVESGGGLVQAGGRLRLSCAASRRIFDYNDRGWYRQAPGKERELVAAINDDSRTNYADSVKGRFTISRDNAKNTVYLQMNSLKPEDTAVYYCNNVYGRSGIGFDYWGQGTQVTVSS,low polyreactivity
4,QVQLVESGGGLVQAGGRLRLSCADSGLIIYYYAMGWYRQAPGKEREFVAAITSSGGSTSYADSVKGRFTISRDNAKNTVYLQMNSLKPEDTAVYYCAARSKSEGGYWGQCTQVTVSS,high polyreactivity
5,QVQLVESGGGLVQAGGRLRLSCADSGRTYGSNAMGWYRQAPGKERELVAAISGGDTTNYADSVKGRFTISRDNAKNTVYLQMNSLKPEDTAVYYCATDLRPAYDYWGEGTQVTVSS,low polyreactivity
6,QVQLVESGGGLVQAGGRLRLSCASSGITFTFNAMGRYTQAPGKEMELVAAITWSGGSTFYADSVKGRFTISRDNAKNSVYLQMNSLIPEDTAVYYCARDTELYVRWLDYWGQGTQVTVSS,low polyreactivity
7,QVQLVESGGGLVQAGGRLRLSCPPSGVTFTRNAMGWYRQAPGKERELVAAISSSAGSTSYADSVKGRLTISRDNAKNTVYLQMNSLKPEDTAVYYCATEGSYYSWVGKVGYRYQYHYWGHGTQVTVSS,high polyreactivity
8,QVQLVESGGGLVQAGGRLRLSCSASGIILPKYTMGGYRQAPGKERELVAAITRSGGSTYYADSVKGRFTISRDNAKNTVYLHMISMKPEDTAVYYCAAERASFRYQDYYIYDYWGQGTEVTVSS,high polyreactivity
9,QVQLVESGGGLVQAGGRLRLSCSASGSIFVTYDMGWYRQAPGKERELVAGISGSGSTNYADSVKGRFTISRDNAKNTVYLQMNSLKPEDTAVYYCAAEYEYLWSQYLTDYGYDYWGQGTQVTVSS,low polyreactivity
10,QVQLVESGGGLVQAGGRLRLSCSASGSTFYPNAMGWYRQAPGKERELGAAISWSGGSTYYADSVKGRFTISRDNAKKTVDLQMNSLKPEDTAVYYCAAYYYGVRKYDYWGQGTQVTVSS,high polyreactivity
11,QVQLVESGGGLVQAGGRLRLTCAASGSIFEGYAMGWYRQAPGKERELGARITSDDDSTYYADSVKGRFTISRDNAKNSVYLQMKSLKPEDTAVYYCNAVYYWTSLAMDSWGQGTQVTVSS,low polyreactivity
12,QVQLVESGGGLVQAGGRLRLTCAPSGTIIYQYAMGFDRHAPGKERELVAASSTTGGPTYYADSVKGRFTISRDNAKKTVYLQMNSLKPEDTAVYYCAAEKYYGYDYWGQGTQVTVSS,high polyreactivity
13,QVQLVESGGGLVQAGGRLRVSCATSGRTFGKYAMGWYRQAPGKERELVATISRSGGSTYYADSVKGRFTISRDNAKNTVYLQMNSLNPVDNAVYYCNAVTSRYIWPPGLDRYHYWGQGTQVTVSS,high polyreactivity
14,QVQLVESGGGLVQAGGRLSLICAASGSIFPINAMGWYRQAPGKERELVADITSGGSTNYADSVKGRFTISRDNAKNTVYLQMNSLKPEDTAVYYCAADWRYWRWAFDYWGQGTQVTVSS,high polyreactivity
15,QVQLVESGGGLVQAGGSHGLSCAASGRTSEKNPMGWYRQAPGIERELVAGISWRGGSTYYADSVKGRFTISRDNAKNTVYLQMNSLKPEDTAFYYCARSGAFSGLDDSWGQGTQVTVSS,low polyreactivity
16,QVQLVESGGGLVQAGGSHRFSCGASGSTSTYYAMGCYRQAPGTERELVAAISSGGSTNYADSVKGRFTISRDNAKNTVYLKMNSLKPEETAVYYCATDSGDGEGDYWGQGTQVTVSS,low polyreactivity
17,QVQLVESGGGLVQAGGSHRLSCAASARIFYLYAMGWYRQAPGKERELVAAISRSGSSTYYADSVKGRFTISRDNPKNTVYLEMNSLKPEDTAVYYFADLRYRPVHQDHYDYWGQGTQVTVSS,high polyreactivity
18,QVQLVESGGGLVQAGGSHRLSCAASGFILAYYAMGWYRQAPGKERELVASINRSGGSTYYADSVKGRFTISRDNAKNTVYFQMNSLKPEDTAVHYCAHTNRGDGQWWYRYYYWGQGTQVTVSS,high polyreactivity
19,QVQLVESGGGLVQAGGSHRLSCAASGGTFNTNAMGWYRQAPGKERELVATIRGGVITTYADSVKGRFTISRDNAKNTVYLQMNSLKPEDTAVYYFNKDNAPYAVSSIFGARDYWGQGTQVTVSS,low polyreactivity
20,QVQLVESGGGLVQAGGSHRLSCAASGIIFPWYVMGWYRQAPGKERELVAAITQSGGSTFYADSLKGRFTISRDNAKNTVYLQMNCLKPEDTAVYYCHTEDFFKFPEMDSWGQGTQLTVSS,low polyreactivity
21,QVQLVESGGGLVQAGGSHRLSCAASGIIFSGNAMGWYRQAPGKERELVAAITRGGRTYYADSVKGRFTISRDNAKNTVYLQMNSLKPEDTAVYYCNKRYRYKYDYWGQGTQVTVSS,high polyreactivity
22,QVQLVESGGGLVQAGGSHRLSCAASGITFYGNAMGWYRQAPGKERELVAGITSGGNTYYADSVKGRFTISRDNAKNTVYLQMNSLKPEDTAVYYCAAGYFSYRSYYYYRYDYWGQGTQVTVSS,high polyreactivity

row,Sequence,polyreactivity (PSR sort gate)
1,QVQLVESGGGLVQAGGSHRLSCAASGQTVYYYPMGWYRQAPGKEREVVASISTGGNTYYADSVKGRFTISRDNAKNTVYLQMNSLKPEDTAVYYCAAGLYSWSGFASYNSAYGYWGQGTQVTVSS,low polyreactivity
2,QVQLVESGGGLVQAGGSHRLSCAASGRIFAYNAMGWYRQAPGKERELVAAISSGGNTYYADSVKGRFTISRDNAKNTVYLQMNSLTPEDTAVYYCNAGVGWHRYYSNYDYWGQGTQVTVSS,low polyreactivity
3,QVQLVESGGGLVQAGGSHRLSCAASGRIFGCYTMGWYRQAPAKERELVAGITRRGGRTYYADSVKGRFTISRDTAKYTVYLQMNSLKPEDTAVYYCAVRSGVNFYYWGHGTQVTVSS,high polyreactivity
4,QVQLVESGGGLVQAGGSHRLSCAASGRIFQRNTMGWYRQAPGKERELVARINYSGGSTYYADSVKGRFTISRDNAKNTVYLQMNSLKPEDTAVYYCAARVWTWSIYYRAGLSSYDYWGQGTQVTVSS,low polyreactivity
5,QVQLVESGGGLVQAGGSHRLSCAASGRILVRYAMGCYRHAPGKERELVAAISRGGSTTYADSVKGRFTISRDNAKNTVYLQMNSLKPEDTAFYYCAAGRYPYNRDYWGQGTQVTVSS,high polyreactivity
6,QVQLVESGGGLVQAGGSHRLSCAASGRTFLTNAMGWYRQAPGKERELVAAIRWSGTSTYYADSVKGRFTISRDNAKNTVYLQMNSLKPEDTAVYYCAARKVYGSKYGYWGQGTQVTVSS,high polyreactivity
7,QVQLVESGGGLVQAGGSHRLSCAASGRTFRQYAMGWYRQAPGKERELVATISSGGSTYYADSVKGRFTISRDNAKNTVYLQMNSLKPEDTAVYYCAAPYWARKYWRKFGPFDYWGQGTQVTVSS,low polyreactivity
8,QVQLVESGGGLVQAGGSHRLSCAASGRTFWYYTMGWYRQAPGKERELVAAINWRGGTTYYADSVKGRFTISRDNAMNTVYLQMNSLKPEDTAVYYCAATHWAYSRVPYDYWGQGTQVTVSS,high polyreactivity
9,QVQLVESGGGLVQAGGSHRLSCAASGRTLGGYAMGWSRQAPGKERELVAAISYSGGSTYYADSVKGRFTISRDNAKNTVYLQMNSLKAEFTAVYYCARDYSWYYYGSQLFAHDYWGQGTQVTVSS,low polyreactivity
10,QVQLVESGGGLVQAGGSHRLSCAASGRTYVYNAMGWYRQAPGKERELDAGITNGGSTNYADSVKGRFTISRDNAKNTVYLQMNSLKPEDTAVYYCAADSRVYPYYFGDFGYWGQGTQVTVSS,low polyreactivity
11,QVQLVESGGGLVQAGGSHRLSCAASGSIFALYAMGWYREAPGKEREFVAAISWNGGRTYYADSVKGRFTISRDNAKNTVYLQMNSLKPEDTAVYYCAARSWYAYDYWGQGTQVTVSS,high polyreactivity
12,QVQLVESGGGLVQAGGSHRLSCAASGSILSYYAMGWYRQAPGQEREFVAAIRTRGGSTYYADSVKGRFTISRDNAKNTVYLQMYSLKPEDTAVYYFAARTRPDRVRQGRYYYWGQGTQVTVSS,high polyreactivity
13,QVQLVESGGGLVQAGGSHRLSCAASGSTFAYYAMGWYRQAPGKERELVATISERGGTTYYADSVKGRFTLSRDNAKNTVYFQMNILKPEVTAVYYCAADHSGYWTYYYDYYYWGQGTQVNVSS,low polyreactivity
14,QVQLVESGGGLVQAGGSHRLSCAASGSTLTWYAMGWYRQAPWKEWELVDTISSSTGSTRYADSVKGRFTISRDNAKNSVYLRINSLKPDDTAVYYCAKAYALRYARGRARYDYDFWGQGTQVNVSS,low polyreactivity
15,QVQLVESGGGLVQAGGSHRLSCAASGSTSGINAMGWYRQAPGKERELVAAIRLSGGRTYYADSVKGRFTISRDNAKNTVYLQMNSLKPEDTAVYYCAARYPSRVGYYYLGQGTQVTVSS,high polyreactivity
16,QVQLVESGGGLVQAGGSHRLSCAASGSTVGRNAMGWYGQAPGKERELVAAITASGGTTYYADSVKGRFTISRDNAKNTVYLQMNSLKPEDTAVYYCARAGHFSFKYDYWGQGTQVTVSS,low polyreactivity
17,QVQLVESGGGLVQAGGSHRLSCAASGYIFDYNDMGWSRQAPGKERELVAAITYSRGSTYYADSVKGRFTISRDNAKNTVYLQMNSLQPEDTAVYYCAATFRSRGYSARRYYYWGQGTQVTVST,high polyreactivity
18,QVQLVESGGGLVQAGGSHRLSCAASRSIFPYNAKGWYRQAPGKATELVATISNSGGSTYYADSVKGRFTISRDTAMNTVYLQMNSLKPEDTAVYYCADDRSVYLPAPDPALDYWGQGTQLTVSS,low polyreactivity
19,QVQLVESGGGLVQAGGSHRLSCAAYGRIFYYYVMGWYRQAPGKERELVAVIDWSGGSTYYADSVKGRFTISRDNAKYTVYVQMNCLKPDDTAVYYCAKVWLNFSLAYEDYDYWGQGTQVNVSS,low polyreactivity
20,QVQLVESGGGLVQAGGSHRLSCASYGSIFRCYAKGWYRQAPGKERELVAGITRSGGSTYYADSVKGRFTISRDNAKNTVYLQLNRLKPEDTAVYYCNADLYRKRAWVRRDGSWGHGTQVTVSS,low polyreactivity
21,QVQLVESGGGLVQAGGSHRLSSAASGSIIPSYAMGWYRQAPGKERELVAAITTSGGNTFYADSVKGRFTISRDNAKNTVYLQMNSLKPEDTAVYYCAADYSPYTVEYDYWGQGTQVTVSS,low polyreactivity
